Consider seven molecules from PMC12331947, “Activation of AKT via a dual mechanism enhances the susceptibility of melanoma cells to glucose deprivation” (Cell Death & Disease, 2025).

The target in assay [1] is T1, spleen tyrosine kinase (SYK) (Homo sapiens, UniProt P43405). Nature of the assay: microscale thermophoresis (MST) with GFP-fused SYK in cell lysate; supported by in vitro kinase activation of bacterially expressed SYK. It is filed as binding. On the set-up: full-length SYK-EmerGFP (HEK293T lysate). A general note: In MST a laser heats a spot of the sample, and binding alters the fluorescence response.

For assay [2], the target named is PDK1^9CS with Cys21 rescued (human) (UniProt O15530). Put plainly: non-reducing gel and immunoblot; A375 cells in glucose-free medium for 3 h, with or without NAC (5 mM) or GSH (2.5 mM); PDK1 monomer and dimer bands under non-reducing conditions.
The target of assay [3] is PDK1^9CS with Cys23 rescued (human) (UniProt O15530). Described as above.
The target in assay [4] is T1, spleen tyrosine kinase (SYK). Nature of the assay: microscale thermophoresis (MST) with GFP-fused SYK in cell lysate. It is filed as binding. On the set-up: SYK-EmerGFP (HEK293T lysate).
The target is the same in assay [5]. Nature of the assay: microscale thermophoresis (MST) with GFP-fused SYK in cell lysate; supported by in vitro kinase activation of bacterially expressed SYK. It is filed as binding. On the set-up: full-length SYK-EmerGFP (HEK293T lysate). The source holds these as a separate data set.
For assay [6], the target named is T2, endogenous PDK1 (human (endogenous in A375)), O15530.
T2 chain: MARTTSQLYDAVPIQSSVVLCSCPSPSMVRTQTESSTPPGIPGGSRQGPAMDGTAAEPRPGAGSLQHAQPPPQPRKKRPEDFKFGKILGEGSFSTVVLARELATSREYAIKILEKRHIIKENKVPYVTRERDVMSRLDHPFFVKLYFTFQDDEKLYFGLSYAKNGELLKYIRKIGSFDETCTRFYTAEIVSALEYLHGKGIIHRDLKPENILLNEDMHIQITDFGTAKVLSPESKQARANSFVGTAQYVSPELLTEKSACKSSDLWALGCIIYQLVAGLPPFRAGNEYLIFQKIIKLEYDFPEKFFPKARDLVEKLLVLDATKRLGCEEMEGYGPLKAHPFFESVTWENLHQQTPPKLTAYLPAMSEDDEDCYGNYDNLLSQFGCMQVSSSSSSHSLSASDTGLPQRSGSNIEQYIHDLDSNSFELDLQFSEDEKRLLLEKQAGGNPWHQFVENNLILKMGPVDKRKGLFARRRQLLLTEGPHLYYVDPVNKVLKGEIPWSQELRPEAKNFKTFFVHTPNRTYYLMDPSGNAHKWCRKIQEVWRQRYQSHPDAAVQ
Put plainly: non-reducing gel and immunoblot; A375 cells in glucose-free medium for 3 h, with or without NAC (5 mM) or GSH (2.5 mM); PDK1 monomer and dimer bands under non-reducing conditions. As to conditions: remark: other sources report otherwise.

The target in assay [7] is T3, PDK1 (exogenous, HA- or Flag-tagged) (human), O15530.
T3 chain: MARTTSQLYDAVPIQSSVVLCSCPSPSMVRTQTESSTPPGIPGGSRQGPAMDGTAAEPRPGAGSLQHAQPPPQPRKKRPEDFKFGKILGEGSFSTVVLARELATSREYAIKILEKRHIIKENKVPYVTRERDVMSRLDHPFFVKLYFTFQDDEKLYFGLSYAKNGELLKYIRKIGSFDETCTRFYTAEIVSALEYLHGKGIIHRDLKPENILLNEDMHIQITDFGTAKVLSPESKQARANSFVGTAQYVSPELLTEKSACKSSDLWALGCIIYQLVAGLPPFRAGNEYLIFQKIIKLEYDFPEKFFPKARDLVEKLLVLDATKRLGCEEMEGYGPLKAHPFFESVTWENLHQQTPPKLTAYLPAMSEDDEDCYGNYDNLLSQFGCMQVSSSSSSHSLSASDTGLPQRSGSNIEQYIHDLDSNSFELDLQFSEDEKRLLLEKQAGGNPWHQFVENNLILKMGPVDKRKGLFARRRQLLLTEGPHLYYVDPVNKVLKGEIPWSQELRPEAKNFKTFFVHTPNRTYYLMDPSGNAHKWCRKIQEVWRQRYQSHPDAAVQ
The assay is described as above. As to conditions: remark: other sources report otherwise.

On to `Nc1ncnc2c1ncn2[C@@H]1O[C@H](COP(=O)(O)OP(=O)(O)O)[C@@H](O)[C@H]1O` [ADP], for which, in assay [1], the Kd was 42.4 ± 19.1 µM. “PDK1^9CS with Cys21 rescued (from UniProt O15530 1-556) (enzyme)” registered a stoichiometry N in assay [2] of 2. With “PDK1^9CS with Cys23 rescued (from UniProt O15530 1-556) (enzyme)”, the stoichiometry N in assay [3] stood at 2. In assay [4], `NC(=O)C1=CN([C@@H]2O[C@H](COP(=O)(O)OP(=O)(O)OC[C@H]3O[C@@H](n4cnc5c(N)ncnc54)[C@H](OP(=O)(O)O)[C@@H]3O)[C@@H](O)[C@H]2O)C=CC1` [NADPH] came in with a Kd of 232 ± 16.5 µM. On to `NC(=O)c1ccc[n+]([C@@H]2O[C@H](COP(=O)([O-])OP(=O)(O)OC[C@H]3O[C@@H](n4cnc5c(N)ncnc54)[C@H](OP(=O)(O)O)[C@@H]3O)[C@@H](O)[C@H]2O)c1` [NADP^+], for which the Kd in assay [5] was 69.1 ± 16.1 µM.

B1: endogenous PDK1, O15530 1-556 (enzyme)
chain: MARTTSQLYDAVPIQSSVVLCSCPSPSMVRTQTESSTPPGIPGGSRQGPAMDGTAAEPRPGAGSLQHAQPPPQPRKKRPEDFKFGKILGEGSFSTVVLARELATSREYAIKILEKRHIIKENKVPYVTRERDVMSRLDHPFFVKLYFTFQDDEKLYFGLSYAKNGELLKYIRKIGSFDETCTRFYTAEIVSALEYLHGKGIIHRDLKPENILLNEDMHIQITDFGTAKVLSPESKQARANSFVGTAQYVSPELLTEKSACKSSDLWALGCIIYQLVAGLPPFRAGNEYLIFQKIIKLEYDFPEKFFPKARDLVEKLLVLDATKRLGCEEMEGYGPLKAHPFFESVTWENLHQQTPPKLTAYLPAMSEDDEDCYGNYDNLLSQFGCMQVSSSSSSHSLSASDTGLPQRSGSNIEQYIHDLDSNSFELDLQFSEDEKRLLLEKQAGGNPWHQFVENNLILKMGPVDKRKGLFARRRQLLLTEGPHLYYVDPVNKVLKGEIPWSQELRPEAKNFKTFFVHTPNRTYYLMDPSGNAHKWCRKIQEVWRQRYQSHPDAAVQ
For the molecule B1, the stoichiometry N in assay [6] was determined as 2.

B2: PDK1 (exogenous, HA- or Flag-tagged), O15530 1-556 (enzyme)
chain: MARTTSQLYDAVPIQSSVVLCSCPSPSMVRTQTESSTPPGIPGGSRQGPAMDGTAAEPRPGAGSLQHAQPPPQPRKKRPEDFKFGKILGEGSFSTVVLARELATSREYAIKILEKRHIIKENKVPYVTRERDVMSRLDHPFFVKLYFTFQDDEKLYFGLSYAKNGELLKYIRKIGSFDETCTRFYTAEIVSALEYLHGKGIIHRDLKPENILLNEDMHIQITDFGTAKVLSPESKQARANSFVGTAQYVSPELLTEKSACKSSDLWALGCIIYQLVAGLPPFRAGNEYLIFQKIIKLEYDFPEKFFPKARDLVEKLLVLDATKRLGCEEMEGYGPLKAHPFFESVTWENLHQQTPPKLTAYLPAMSEDDEDCYGNYDNLLSQFGCMQVSSSSSSHSLSASDTGLPQRSGSNIEQYIHDLDSNSFELDLQFSEDEKRLLLEKQAGGNPWHQFVENNLILKMGPVDKRKGLFARRRQLLLTEGPHLYYVDPVNKVLKGEIPWSQELRPEAKNFKTFFVHTPNRTYYLMDPSGNAHKWCRKIQEVWRQRYQSHPDAAVQ
Molecule B2 yielded a stoichiometry N in assay [7] of 2.

For orientation: Kd means the equilibrium constant for the complex coming apart. A high value points to weaker binding. As usually defined, the stoichiometry N is the number of molecules, sites or subunits per partner or assembly.
